Laboratory results published in patent publication US20240251767A1.

Molecular target: Spike protein of the COVID-19 Spike-ACE2 Binding Assay Kit (Raybiotech) (SARS-CoV2) (UniProt P0DTC2)

Substance: human SAT Nb-Fc control VH-Ab-8 (HAb8-S) (Fc fusion)
- IC50: 0.079 nM
